# Results: the nanobody polyreactivity screen of Harvey et al. (2022)
# Assay: yeast display, Sf9 membrane polyspecificity reagent, FACS + sequencing; frameworks hold sequencing errors
# In short: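 Sorting gates, low and high (top ~1%), were placed on anti-HA fluorescence to track expression and on streptavidin fluorescence to track reagent binding. A clone's polyreactivity label is taken from the gate it came out of. The reagent was 10% biotinylated, detergent-solubilized Sf9 membrane, applied for 1 hour at 4 °C to galactose-induced yeast display cells.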
row,Sequence,polyreactivity (PSR sort gate)
1,QVQLVESGGGLVQAGGSLRLSCAASGFTFRYYAMGWYRQAPGKERELVASISRSGSGTFYADSVKGRFTISRDNAKNTVYLQMNSLKPEDTAVYYCNAVSAAKIPFQKYGYWGQGTQVTVSS,high polyreactivity
2,QVQLVESAGGLVQEGGSLRVSCAASGRTFGRYAMGRYRQAPGKEREMVAAITVGGGSTYYADSVKGRFTISRDTAKNTVYLQMNSLKPEDTAVYYCNALHTYTYRYDYYYWGQGTQVTVSS,high polyreactivity
3,QVQLVESGGGLVQAGGSLRLSCAASGFIFAYYAMGWYRQAPGKERELVAAISSRGGTYYADSVKGRFTISRDNAKNTVYFQMNSLKPEDTAVYYCAAASYTWVSRGYEYWGQGTQVTVSS,high polyreactivity
4,QVQLVESGGGLVQAGGSLRLSCAASGNIFPPNTMGWDRQAPGKDRELVAAISSRGSRTYYADSVKGRFTISRDNAKNTVYLQMNSLKPEDTAVYYCAAQQWQGGYLYDYWGQGTQVTVSS,high polyreactivity
5,QVQLVESGVGLVQAGGSLRLSCAASGFTFYSNAMGWYRQAPGKERELVAAITGRVGRTYYADSVKGRFTISRDNAKNTVYLLMNSLKPEDTAVYYCAAVYQVSTWGGRYYFRQGYDYWGQGTQVTVSS,high polyreactivity
6,QVQLVESGGGLVQAGGSLRLSCAASGRTFKWYPMGWYRQATGKERELVAGITSTGTTSYADSVKGRFTISRDNAKNTVYLQMNSLKPEDTAVYYCNTYYRWWKYDYWGQGTQVTVSS,high polyreactivity
7,QVQLVESGGGLVQAGGSLRLSCAASGSIFISYAMGWYRQAPGKERELVAAINSGGSTNYADSVKGRFTISRDNAKNTVYLQMNSLKPEDTAVYYCAVDGYFFQGPYYYWGQGTQVTVSS,low polyreactivity
8,QVQLVESGGGLVQAGVSLRLSSAASGSTLGYNVMGWYRQAPGKERELVAAISGDGSTNYADSVKGRFTISRDNAKNTVYLQMNSLKPEDTAVFYCNAPFWGYRTSFSYPVVQRFDYWGQGTQVTVSS,low polyreactivity
9,QVQLVESGGGLVQAGGSLRLSCAASGSTFDSNTMGWYRQAPGKERELVAAITVSGGSTHYADSVKGRFTNSRYNAKNTVYLQMNSLKPEDTAVYYCNRRSYGYGAFSGYDYWGQGTQVTVSS,low polyreactivity
10,QVQLVESGGGLLQAGGSLRLSCAASGSTISRYAMGWYRQAPGKERELVAAIRRNGDGTYYADSVKGRFTISRDNAKNTVYVQMNSLKPEDTAVYYCAARRFIPRFNYWGQGTQVTVSS,high polyreactivity
11,QVQLVESGGGLVQAGGSLRLSCAASGRIFPSYAMGWYRQAPGKERELVATISSGGRTYYADSVKGRFTISRDNAKNTVYLQMNSLKPEDTEVYYCNADRTQDRNPYTYATFDYWGQGTQVTVSS,low polyreactivity
12,QVQLVESGGGLVQAGGSLRLSCASSGITFNLNDMGWYRQAPGKERELVAAITSGGNTSYADSVKGRFTISRDNAKNTVYLQMNSLKPEDTAVYYCATEDFRTDTGMYYWGQGTQVTVSS,low polyreactivity
13,QVQLQESGGGLVQAGGSLRLSCAESGTIFRISDMGSYRQAPGKEREFVASITYGANTYYADSGKGRFTISRDNAKNTVYLQMNSLKPEDTAVYYCAVPPVKETILDYWGQGTQVTVCS,low polyreactivity
14,QVQLVVSGGGLVQAGGSLRLSCAASGSIFGENAMGWYRQAPGKERELVAAITWSGASTYYADSVKGRFTISRDNAKNTVFLKMNSLKPEDTAVYYCNDDRFVRFSTFDYWGQGTQVTVSS,high polyreactivity
15,QVQLVESGGGLVQAGGSLRLSCAASGITFYDNVMGWYRQAPGKERELVAAITSGGSTNYADSVKGRFTISRDNAKNTVYFQMNRLKPEDTAVYYCAAQPRVDYEFPYRYGYWGQGTQVTVSA,low polyreactivity
16,QVQLVESGGGLVQAGGSLRLSCAASGRNFPYYAMGWYRQAPGKEMELVAAITRGVRTHYADSVKGRFTISRDNAKNTVYLQMNSLKPEDTAVYYCAREDWGSYSDMDSWGQGTQVTVSS,low polyreactivity
17,QVQLVESGGGLVQAGGSLRLSCAASGSIFSRNAMGWYRQAPGTERELVAAITDSTGTTYYADSVKGRFTISRDNAKNTVYLQMNSLKPEDTAVYYCNAVGVPQGNFYVRGDDYWGQGTQVTVSS,low polyreactivity
18,QGQLVESGGGLVQAGGSLRLSCAASGFTISSYAMGWYRQATGKEREMVAAISSSGSRTSYADSVKVRFTISRDIAKNSVYFQMNSLKPEDTAVYYCAARPGDGGYYYWGQGTQVTVSS,high polyreactivity
19,QVQLVESGGGLVQAGGSLRLICAASGRTFRYYAMGWYRQAPGKERELVAAITTGSSTYYADSVKGRFTISRDNAKNTVYLQMNSLKPEDTAVYYCNVFQGTRYGYWGQGTQVTVSS,low polyreactivity
20,QVQIVESGGGLVQAGGSLRLSCAASGRSYAINAMGSYRQAPGKERELDASITTRDSSTYYADSVKGRFTISRDNAKNTVYLHMNSLKPEDTAVYYCAKVKLVTYLYRLFVYGSYYWGQGTLVTVSS,low polyreactivity
21,QVQLVESGAGLGQAGGSLRLSCAASGYTFPSNAMGWYRQAPGKERELVAAISSGGRTNYADSVKGRFTISRDNAKNTVYLQMNSLKPEVTAVYYCNADGGPGYPRAYDYWGPGTQVTVSS,low polyreactivity
22,QVQLVESGGGLVQAGGSLRLSCAASGNTFSISAMGWYRLAPGKERELVAAISLSGGSTYYADSVKGRFTISRDNAKNTVYLQMNSLKPEDTAVYYCAADVFTARRRYDYWGQGTQLTVSS,low polyreactivity

row,Sequence,polyreactivity (PSR sort gate)
1,QVQLVESGGGLVQAGGSLRLSCAASGLTFDSNAMGWYRQAPGKERELVAAISGSVGSTYYADSVKGRFTISRDNAKNTVYLQMNSLKPEDTAVYYCNASSVDKGYDYWGQGTQVTVSS,low polyreactivity
2,QVQLVESGGGLVQAGGSLRLSCAASGSTLSEYAMGWYRQAPGKERELVAAISWSGGSTYYADSVKGRFTISRDNAKNTVYLQMNSLKPEDTAVYDCAAKRYSSKRGLDYWGQGTHVTVSS,high polyreactivity
3,QVQLVESGGGLVQAGGSLRFICAASGGISSSNAMGWYRQAHGKERELVAGINSRGGSTYADSVKGRFTISRANAKNTVYLQMNSLKPEDTAVYYCAAAPTYKWRRKNYDYWGQGTQVTVAS,high polyreactivity
4,QVQLVESGGGLVQAGGSLRLSCAASGRIFRYYAMGWYIQAPGKERELVAAITRGGSTNYADSVKGRFTISRDNAKNTVYLQMNSLKPEDTAVYYCAARRQGRSGNGSWGQGTQVTVSS,high polyreactivity
5,QVQLVESGGALVQAGGSLRLSCAASGSIFWPNAMGWYRPAPGKERELVAAISWGTGSTYYADSVKGRFTISRDNAKNTVYLQMNSLKPEDTAVYYCAADGAYLDPYYDYWGQGTQVTVSS,low polyreactivity
6,QVQHVDSGGGLVQAGGSLRLSCAASGIYVVYAMGWYRQAPGKERELVAAISSGVSTTYADSVKGRFTISRDNAKNTVYLQMNSLKPEDTAVYYCNTLWGHHYIVPYRTREFYYWGQGTQVTVSS,low polyreactivity
7,QVQLVESGGGLVQAGGSLRLSCAASGSIVPTYAMGWYRQAPGKERELVAAIRSGSNTYYADSVKGRFTISRDNAKNTVYLQMNSLKPEDTAVYYCNVGPQRKYPGRRTVPFGYWGQGTQVTVSS,low polyreactivity
8,QDQLVESGGGLVQAGASLRLSCAASGFIFVFNAMGWYRQAPGKERELVAAINGGDITNYADSVKGRFTISRDNAKNTVYLQMTSLKPEDTAVYYCAADGEDSLWTGYDYDYWGQGTQVTVSS,low polyreactivity
9,QVQLVESGGGLVQAGGSLRLSCAASGSTFADNAMGWDRQAPGKERELVAAISSDGSTNYADSVKGRFTISRDNAKNTVYLQMNSLKPEDTAVYYCNADGVYLGYPVVPPEGDYWGQGTQVTVSS,low polyreactivity
10,QVQLVESGGGLVQAGGSLRLSCAASGCIGRRYAMGWYRQAPGKERELVAAITSSGGGTYYADSVKGRFTISRDNAKNTVYFQINILTPEDTAVYYCAARVYGSHFYYRTRPYDYWGQGTQVTVSS,high polyreactivity
11,QVQLVESGGGLVQAGGSLRLICAASGITFRRYGMGWYRQAPGKERELVATITSSVGSRTYYADSVKGRLTISRDNAKNTVYLQMNSLKPEDTAVYYCAADHRVYDYEYWGQGTQVTVSS,low polyreactivity
12,QVQRVESGGGLVQAGGSLRLSCAASGSTFRRYTMGWYRQAPGKERELVAAITYRGSSTYYADSVKGRFTISRDNAKNTVYLQMNSLKPEDTAVYYCAADARYTGYYYWGQGTQVTVSS,high polyreactivity
13,QVQLVESGGGLVQAGGSLRLSCAASGFIFGDNAMGWYRQAPGKERELVAAINSGSRTSYADSVKGRFTISRDNAKNTVFLQMNSLKPEDTAVYYCAAESVSSGDNASRYDFWGQGTQVTVSS,low polyreactivity
14,QDHLVESGGGLVHAGGRLRLSCAASVRIFTAYAMGWYRQAPGTERELVPAISSGDSTYSADSVKGRFTISRDNAKNSVYLQMNSLKPVVTAVYSCATGVYPDFEYVSWGQGTQVTGSS,low polyreactivity
15,QDQLVESGGGLVQAGGSLRLSCAASGFTFYPYAMGWYRQAAGKERELVASITNGGSTNYADSVKGRFTISRDNAKNTVYLQMNSLKPEDTAVYYCNAAYGFYASRYWYASYDYWGQGTQVTVSS,low polyreactivity
16,RVQLGESGGGLVQAGGSLRLSCAASGRTFVRYAMGWYRQAPGKERELVAAISYRGASTFYADSVKGRFTISRDNAKNTVYLQMNSLNPEDTAVYSCATDPRIRYQGNPYDYWGQGTQVTVSS,high polyreactivity
17,QVQLVESGGGLVQAGGSLRLSCAASGSTFVYNVMGWYRQAPGKERELVAAIRWRGGSTYADSVKGRFTISRDNAKNSVYLQMTSLKPQDTAVYYSNTGHEEDEYDYWGQGTQVTVSS,low polyreactivity
18,QVQLVESGGGLVQAGGSLRLTCAASGITFDLNAKGWYRQAPGKERELVAAIFRGGSTYYADSVKGRFTISRDNAKNTVYLQMNSLKPEDTAVYYCAAAYYRVGRAYPHEAYDYWGQGTQVTVSS,low polyreactivity
19,QVQLVESGGGLVQAGGSLRLSCAASGRIFGPYVMGWYIQAPGKERELVAAISTSGTSTYYADSVKGRFTISRDNANNTVYLQMNSLKPEDTAVFYFAKRSGARHRLMDYWGQGTQVTVSS,low polyreactivity
20,QVQLVESGGGLVQAGGSLRLSCAPSGLIFYHYAMGWYRQAPGKERELVAGITRSGGSTYYADSVKGRFTISRDNAKNTVYLQMNSLKPEDTAVYYCAAKSLTTGKYGKYGYWGQGTQVTVSS,high polyreactivity
21,QVQLVESWGGLVQAGGSLRLICAASGSTFRDYFLGWYRRAPGKERELVATISGSGGSTYYADSVKGRFTISRDNAKNTVYLQMNSLKPEDTAFYYCAAVSVSSWYDYWGQGTQVTVSS,low polyreactivity
